Source: patent US20190194300A1
Residue numbers refer to the chain shown, from its start.

B1: wild type anti-AIP2 antibody E7 (antibody, V domains shown)
VH: EVQLVQSGAEVKKPGASVRVSCKTSGYSFTSYDINWVRQTTGQGLEWMGWVNPTSGSTGYAQKFQGRVTMTANTAINTAYMELRDLRSEDTAVYFCVRDVPFDPWGQGTLVTVSS
VL: QSVLTQPASVSGSPGQSITISCTGTSSDVGKYTFVSWYQQHPGKAPKVMVYEVNKRPLGVSPRFSGSKSGNTAYLTISGLQAEDEADYYCSSYTSSSTVVFGGGTKLTVL
B2: variant anti-AIP2 antibody X18 (antibody, V domains shown)
VH: B1 VH with F29G, F102V
VL: B1 VL with T94A
B3: variant anti-AIP2 antibody X12 (antibody, V domains shown)
VH: B1 VH with E1Q, S31V, F102V, L110T
VL: B1 VL with T33L

Target: Staphylococcus aureus autoinducing peptide-2 (AIP2) (Staphylococcus aureus)
Assay: SPR, BiaCore T200

Row | Binder | Ka | Kd | koff | kon
1 | B1 | 1.85e+07 M⁻¹ | 53.9 nM | 0.027 s⁻¹ | 501000 M⁻¹ s⁻¹
2 | B2 | 2.85e+07 M⁻¹ | 35 nM | 0.02 s⁻¹ | 570000 M⁻¹ s⁻¹
3 | B3 | 1.54e+07 M⁻¹ | 64.9 nM | 0.012 s⁻¹ | 186000 M⁻¹ s⁻¹
